This is an account of results in PMC4889959 (Nucleic Acids Research, 2016).

B1: SLX4BTB wild type, yeast two-hybrid fusion [human] / itself (parent complex)
chain: QDKHPDRGGRTLLSLGLLVADFGAMVNNPHLSDVQFQTDSGEVLYAHKFVLYARCPLLIQYVNNEGFSAVEDGVLTQRVLLGDVSTEAARTFLHYLYTADTGLPPGLSSELSSLAHRFGVSELVHLCEQVPIATDS

In the first test the parent is B1. The test can be described thus: yeast two-hybrid β-galactosidase assay; ONPG as substrate; SLX4BTB-F681R-F708R-AD + SLX4BTB-F681R-F708R-BD; parent: 710; read off a plot.
In the case of QDKHPDRGGRTLLSLGLLVADRGAMVNNPHLSDVQFQTDSGEVLYAHKRVLYARCPLLIQYVNNEGFSAVEDGVLTQRVLLGDVSTEAARTFLHYLYTADTGLPPGLSSELSSLAHRFGVSELVHLCEQVPIATDS [chain 1 F22R, chain 1 F49R], the response was roughly 2.5 OD420 reading.

In another test the parent is B1. The test can be described thus: yeast two-hybrid β-galactosidase assay; ONPG as substrate; SLX4BTB-F708R-AD + SLX4BTB-F708R-BD; parent: 710; read off a plot.
Regarding QDKHPDRGGRTLLSLGLLVADFGAMVNNPHLSDVQFQTDSGEVLYAHKRVLYARCPLLIQYVNNEGFSAVEDGVLTQRVLLGDVSTEAARTFLHYLYTADTGLPPGLSSELSSLAHRFGVSELVHLCEQVPIATDS [chain 1 F49R], the response was roughly 3 OD420 reading.
